{"source": "patent US20100226910", "biological_target": "Amyloid beta1-42 standard (from β-Amyloid1-42 ELISA, Human kit, Sigma BE0200), P05067", "sequence (P05067 whole entry, looked up, tested part not stated)": "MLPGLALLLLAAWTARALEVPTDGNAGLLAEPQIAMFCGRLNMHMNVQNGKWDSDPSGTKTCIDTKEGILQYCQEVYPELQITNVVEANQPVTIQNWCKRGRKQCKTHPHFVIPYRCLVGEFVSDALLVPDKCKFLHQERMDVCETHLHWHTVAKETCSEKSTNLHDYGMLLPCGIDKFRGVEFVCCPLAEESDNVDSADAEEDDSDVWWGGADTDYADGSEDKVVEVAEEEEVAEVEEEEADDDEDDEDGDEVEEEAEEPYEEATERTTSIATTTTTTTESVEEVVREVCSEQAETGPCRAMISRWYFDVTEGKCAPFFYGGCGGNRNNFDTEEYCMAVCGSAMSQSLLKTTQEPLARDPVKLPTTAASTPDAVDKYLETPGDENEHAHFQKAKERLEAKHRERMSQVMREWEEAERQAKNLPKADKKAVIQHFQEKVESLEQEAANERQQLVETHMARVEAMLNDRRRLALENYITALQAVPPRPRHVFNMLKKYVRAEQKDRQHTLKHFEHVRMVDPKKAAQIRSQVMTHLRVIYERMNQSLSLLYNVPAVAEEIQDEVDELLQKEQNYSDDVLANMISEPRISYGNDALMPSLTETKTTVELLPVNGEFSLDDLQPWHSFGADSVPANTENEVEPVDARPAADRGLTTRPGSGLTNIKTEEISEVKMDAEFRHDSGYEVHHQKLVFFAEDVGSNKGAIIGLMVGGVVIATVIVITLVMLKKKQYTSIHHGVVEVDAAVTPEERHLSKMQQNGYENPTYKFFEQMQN"}
{"protein": "Tissue kallikrein (SEQ ID NO:1) (protein) IIGGRECEKDSHPWQVAIYHYSSFQCGGVLVDPKWVLTAAHCKNDNYQVWLGRHNLFENEVTAQFFGVTADFPHPGFNLSLLKNHTKADGKDYSHDLMLLRLQSPAKITDAVKVLELPTQEPELGSTCQASGWGSIEPGPDDFEFPDEIQCVELTLLQNTFCADAHPDKVTESMLCAGYLPGGKDTCMGDSGGPLICNGMWQGITSWGHTPCGSANKPSIYTKLIFYLDWINDTITENP", "values": [{"measurement": "% Cleavage (ELISA of remaining Aβ1-42), KLK1 1 pg/mL, 3 hrs", "value": 0, "unit": "%"}, {"measurement": "% Cleavage (ELISA of remaining Aβ1-42), KLK1 1 pg/mL, 18 hrs", "value": 0, "unit": "%"}, {"measurement": "% Cleavage (ELISA of remaining Aβ1-42), KLK1 10 pg/mL, 3 hrs", "value": 0, "unit": "%"}, {"measurement": "% Cleavage (ELISA of remaining Aβ1-42), KLK1 10 pg/mL, 18 hrs", "value": 15, "unit": "%"}, {"measurement": "% Cleavage (ELISA of remaining Aβ1-42), KLK1 100 pg/mL, 3 hrs", "value": 0, "unit": "%"}, {"measurement": "% Cleavage (ELISA of remaining Aβ1-42), KLK1 100 pg/mL, 18 hrs", "value": 19.5, "unit": "%"}, {"measurement": "% Cleavage (ELISA of remaining Aβ1-42), KLK1 1 ng/mL, 3 hrs", "value": 19.6, "unit": "%"}, {"measurement": "% Cleavage (ELISA of remaining Aβ1-42), KLK1 1 ng/mL, 18 hrs", "value": 50, "unit": "%"}, {"measurement": "% Cleavage (ELISA of remaining Aβ1-42), KLK1 10 ng/mL, 3 hrs", "value": 36.6, "unit": "%"}, {"measurement": "% Cleavage (ELISA of remaining Aβ1-42), KLK1 10 ng/mL, 18 hrs", "value": 88.4, "unit": "%"}, {"measurement": "% Cleavage (ELISA of remaining Aβ1-42), KLK1 100 ng/mL, 3 hrs", "value": 71.7, "unit": "%"}, {"measurement": "% Cleavage (ELISA of remaining Aβ1-42), KLK1 100 ng/mL, 18 hrs", "value": 99.8, "unit": "%"}, {"measurement": "% Cleavage (ELISA of remaining Aβ1-42), KLK1 1 µg/mL, 3 hrs", "value": 92.1, "unit": "%"}, {"measurement": "% Cleavage (ELISA of remaining Aβ1-42), KLK1 1 µg/mL, 18 hrs", "value": 100, "unit": "%"}]}
